# Tested on: rP20 WT (Bamboo mosaic virus satellite RNA (satBaMV, clone pBSF4))
# Assay: EMSA
substance,measurement,value
WT satBaMV RNA transcript,Kd,31 nM
